Test results taken from US20070231899A1 (published 2007).
Each block holds one molecule with its values, some of them ahead of it.

Tests used:
[1] = target: tissue-type plasminogen activator (t-PA) (UniProt P00750); test: surface plasmon resonance, phospholipid-associated AIIt; AIIt with t-PA
[2] = target: plasmin (Homo sapiens (Human)) (UniProt P00747); test: surface plasmon resonance, phospholipid-associated AIIt; AIIt with plasmin
[3] = target: [Glu]-plasminogen (human) (UniProt P00747); test: surface plasmon resonance, phospholipid-associated AIIt; AIIt with plasminogen
[4] = target: plasmin (Homo sapiens (Human)) (UniProt P00747); test: surface plasmon resonance, phospholipid-associated annexin A2; phospholipid-associated annexin A2 with plasmin
[5] = target: T1, Annexin II heterotetramer (AIIt) purified from bovine lung (bovine, UniProt P04272 2-339; P60902 2-97); test: iodinated A61 (0.008-5 µM) on AIIt bound to phospholipid-coated wells, gamma counting
T1 construct: also called annexin II tetramer
Source text: Binding of A₆₁ to AIIt—The purified A₆₁ was iodinated according to manufacturer's procedures. Iodinated A₆₁ retained biological activity as determined by the endothelial cell proliferation assay (Kassam et al., 2001). 96-well Immulon-1 Removawell strips (Dynex Technologies) were coated with phospholipid mixture containing 3:1 ratio of phosphatidylserine to phosphatidylcholine and air-dried. The coated strips were blocked with 1% fatty acid-free bovine serum albumin (BSA) in a buffer containing 20 mM Hepes (pH 7.4), 140 mM NaCl, and 2 mM CaCl₂ (buffer A) at room temperature for 2 h. The strips were washed with buffer A and incubated with 1 μM AIIt in buffer A at room temperature for 4 h. The strips were then washed and incubated with 0.008-5 μM iodinated A₆₁ with or without 30-fold molar excess of cold A₆₁ or BSA at 4° C. After overnight incubation, the strips were washed five times with PBS, and individual wells were detached and measured for radioactivity with a γ-counter. The data shown (n=6) are the average of two separate experiments.

Sequence of tissue-type plasminogen activator (t-PA) (P00750 36-562 limits assumed): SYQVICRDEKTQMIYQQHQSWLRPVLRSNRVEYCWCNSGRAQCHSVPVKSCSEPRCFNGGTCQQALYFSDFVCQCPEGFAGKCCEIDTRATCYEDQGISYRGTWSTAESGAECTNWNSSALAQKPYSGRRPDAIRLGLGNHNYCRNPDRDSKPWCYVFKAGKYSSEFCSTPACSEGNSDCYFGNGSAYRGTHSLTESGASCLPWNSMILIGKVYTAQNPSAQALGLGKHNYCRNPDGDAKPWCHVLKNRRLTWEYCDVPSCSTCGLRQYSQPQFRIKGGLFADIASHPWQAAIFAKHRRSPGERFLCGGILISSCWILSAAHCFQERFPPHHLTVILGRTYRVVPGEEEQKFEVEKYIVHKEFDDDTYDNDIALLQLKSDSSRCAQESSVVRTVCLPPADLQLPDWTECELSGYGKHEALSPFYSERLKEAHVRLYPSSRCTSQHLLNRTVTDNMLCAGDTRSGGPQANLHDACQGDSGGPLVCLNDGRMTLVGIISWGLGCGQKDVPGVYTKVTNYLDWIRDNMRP
Sequence of [Glu]-plasminogen (human) (P00747 20-810 limits assumed): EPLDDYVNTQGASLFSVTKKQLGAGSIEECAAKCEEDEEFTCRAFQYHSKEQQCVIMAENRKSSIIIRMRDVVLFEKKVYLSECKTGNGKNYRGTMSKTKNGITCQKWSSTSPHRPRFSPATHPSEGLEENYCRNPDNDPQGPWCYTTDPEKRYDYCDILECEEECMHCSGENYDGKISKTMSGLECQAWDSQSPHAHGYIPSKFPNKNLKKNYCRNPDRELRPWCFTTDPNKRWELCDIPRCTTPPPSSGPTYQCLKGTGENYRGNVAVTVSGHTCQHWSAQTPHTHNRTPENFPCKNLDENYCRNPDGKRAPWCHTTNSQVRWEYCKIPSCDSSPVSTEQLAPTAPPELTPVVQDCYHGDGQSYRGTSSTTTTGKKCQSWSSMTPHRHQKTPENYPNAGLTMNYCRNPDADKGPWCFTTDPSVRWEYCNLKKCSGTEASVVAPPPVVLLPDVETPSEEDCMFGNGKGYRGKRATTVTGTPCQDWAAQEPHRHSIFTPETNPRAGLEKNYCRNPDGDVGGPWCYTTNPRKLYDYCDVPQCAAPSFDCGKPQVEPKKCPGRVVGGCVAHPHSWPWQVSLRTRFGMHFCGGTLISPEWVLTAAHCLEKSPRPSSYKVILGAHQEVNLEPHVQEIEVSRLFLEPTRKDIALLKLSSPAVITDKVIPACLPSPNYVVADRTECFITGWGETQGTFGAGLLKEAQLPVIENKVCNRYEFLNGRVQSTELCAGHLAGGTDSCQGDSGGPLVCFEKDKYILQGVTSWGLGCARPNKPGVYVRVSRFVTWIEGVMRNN
T1 sequence (P04272 2-339 limits assumed, chain 1 of 2): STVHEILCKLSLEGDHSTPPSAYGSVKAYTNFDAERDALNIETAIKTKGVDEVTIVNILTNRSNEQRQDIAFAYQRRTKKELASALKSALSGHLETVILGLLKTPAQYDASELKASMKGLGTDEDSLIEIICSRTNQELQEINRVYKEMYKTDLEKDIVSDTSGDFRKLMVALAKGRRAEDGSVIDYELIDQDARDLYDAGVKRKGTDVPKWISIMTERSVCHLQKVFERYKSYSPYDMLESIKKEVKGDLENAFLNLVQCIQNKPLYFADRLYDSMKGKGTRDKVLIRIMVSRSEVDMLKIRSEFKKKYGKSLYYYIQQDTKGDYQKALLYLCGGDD
T1 sequence (P60902 2-97 limits assumed, chain 2 of 2): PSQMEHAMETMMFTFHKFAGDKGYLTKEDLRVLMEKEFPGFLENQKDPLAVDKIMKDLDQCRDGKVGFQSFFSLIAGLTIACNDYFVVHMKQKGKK

Kd [1]: 680 nM | Kd [2]: 750 nM | Kd [3]: 110 nM
Molecule: Annexin II heterotetramer (AIIt), phospholipid-associated, as used in the surface plasmon resonance study of Example 12 (from UniProt P07355 2-339)

Kd [4]: 780 nM
Molecule: Annexin A2 (p36), phospholipid-associated (from UniProt P07355 2-339)

Kd [5]: 1000 nM
B1: A61 antiangiogenic plasminogen fragment (Lys78-Lys468 of plasminogen) (other)
chain: KVYLSECKTGNGKNYRGTMSKTKNGITCQKWSSTSPHRPRFSPATHPSEGLEENYCRNPDNDPQGPWCYTTDPEKRYDYCDILECEEECMHCSGENYDGKISKTMSGLECQAWDSQSPHAHGYIPSKFPNKNLKKNYCRNPDRELRPWCFTTDPNKRWELCDIPRCTTPPPSSGPTYQCLKGTGENYRGNVAVTVSGHTCQHWSAQTPHTHNRTPENFPCKNLDENYCRNPDGKRAPWCHTTNSQVRWEYCKIPSCDSSPVSTEQLAPTAPPELTPVVQDCYHGDGQSYRGTSSTTTTGKKCQSWSSMTPHRHQKTPENYPNAGLTMNYCRNPDADKGPWCFTTDPSVRWEYCNLKKCSGTEASVVAPPPVVLLPDVETPSEEDCMFGNGK
modifications: radioiodinated (iodinated with Iodobeads) in the binding assay
notes: also called AAPF; anti-angiogenesis plasmin fragment
